Where a chain is given by its changes, count along the chain named.
B1: TR01H016-E22Hh/none-Hi-Kn010G3/L0000-k0 (antibody, V domains shown)
VH: QVQLVESGGGLVQPGRSLRLSCAASGFTFSNAWMHWVRQAPGKGLEWVAQIKGKSNNYATYYAESVKGRFTISRADSKNSIYLQMNSLKTEDTAVYYCRYVHYSYSYGVDIWGQGTTVTVSS
VL: DIVMTQSPLSLPVTPGEPASISCRSSQSLVHSNRNTYLHWYQQKPGQAPRLLIYKVSNRFSGVPDRFSGSGSGTDFTLKISRVEAEDVGVYYCGQGTQVPYTFGQGTKLEIKR
notes: one-arm
B2: TR01H035-E22Hh/none-Hi-Kn010G3/L0000-k0 (antibody, V domains shown)
VH: B1 VH with N56Q, Y105A, I111Y
VL: B1 VL
notes: one-arm
B3: TR01H040-E22Hh/none-Hi-Kn010G3/L0203-k0 (antibody, V domains shown)
VH: B1 VH with G53D, N56Q, Y105A, I111A
VL: B1 VL with L29P, L38I
notes: one-arm
B4: TR01H041-E22Hh/none-Hi-Kn010G3/L0000-k0 (antibody, V domains shown)
VH: B1 VH with G53D, N56Q, Y105A, I111Y
VL: B1 VL
notes: one-arm
B5: TR01H040-E22Hh/none-Hi-Kn010G3/L0209-k0 (antibody, V domains shown)
VH: B1 VH with G53D, N56Q, Y105A, I111A
VL: B1 VL with L29P, L38I, G94Y
notes: one-arm
B6: TR01H040-E22Hh/none-Hi-Kn010G3/L0206-k0 (antibody, V domains shown)
VH: B1 VH with G53D, N56Q, Y105A, I111A
VL: B1 VL with L29P, G94Y
notes: one-arm
B7: TR01H029-E22Hh/none-Hi-Kn010G3/L0000-k0 (antibody, V domains shown)
VH: B1 VH with A23S, Y105A
VL: B1 VL
notes: one-arm
B8: TR01H036-E22Hh/none-Hi-Kn010G3/L0000-k0 (antibody, V domains shown)
VH: B1 VH with Y105A, I111Y
VL: B1 VL
notes: one-arm
B9: TR01H031-E22Hh/none-Hi-Kn010G3/L0000-k0 (antibody)
VH: B1 VH with L11V, R16G, Y105A
light: DIVMTQSPLSLPVTPGEPASISCRSSQSLVHSNRNTYLHWYQQKPGQAPRLLIYKVSNRFSGVPDRFSGSGSGTDFTLKISRVEAEDVGVYYCGQGTQVPYTFGQGTKLEIKRTVAAPSVFIFPPSDEQLKSGTASVVCLLNNFYPREAKVQWKVDNALQSGNSQESVTEQDSKDSTYSLSSTLTLSKADYEKHKVYACEVTHQGLSSPVTKSFNRGEC
notes: one-arm
B10: TR01H040-E22Hh/none-Hi-Kn010G3/L0222-k0 (antibody, V domains shown)
VH: B1 VH with G53D, N56Q, Y105A, I111A
VL: B1 VL with L29P, L38I, H39Q, G94Y
notes: one-arm
B11: TR01H045-E22Hh/none-Hi-Kn010G3/L0000-k0 (antibody, V domains shown)
VH: B1 VH with A23S, G53D, N56Q, Y105A, I111A
VL: B1 VL
notes: one-arm
B12: TR01H024-E22Hh/none-Hi-Kn010G3/L0000-k0 (antibody, V domains shown)
VH: B1 VH with R16G, N56Q, Y105A, I111A
VL: B1 VL
notes: one-arm
B13: TR01H044-E22Hh/none-Hi-Kn010G3/L0000-k0 (antibody, V domains shown)
VH: B1 VH with A23S, G53D, N56Q, Y105A
VL: B1 VL
notes: one-arm
B14: TR01H019-E22Hh/none-Hi-Kn010G3/L0000-k0 (antibody, V domains shown)
VH: B1 VH with N56Q, Y105A
VL: B1 VL
notes: one-arm
B15: TR01H025-E22Hh/none-Hi-Kn010G3/L0000-k0 (antibody, V domains shown)
VH: B1 VH with G53S, N56Q, Y105A
VL: B1 VL
notes: one-arm
B16: TR01H043-E22Hh/none-Hi-Kn010G3/L0000-k0 (antibody, V domains shown)
VH: B1 VH with A23S, G53D, Y105A
VL: B1 VL
notes: one-arm
B17: TR01H028-E22Hh/none-Hi-Kn010G3/L0000-k0 (antibody, V domains shown)
VH: B1 VH with L11V, R16G, G53S, N56Q, Y105A
VL: B1 VL
notes: one-arm
B18: TR01H026-E22Hh/none-Hi-Kn010G3/L0000-k0 (antibody, V domains shown)
VH: B1 VH with R16G, G53S, N56Q, Y105A
VL: B1 VL
notes: one-arm
B19: TR01H037-E22Hh/none-Hi-Kn010G3/L0000-k0 (antibody, V domains shown)
VH: B1 VH with H35P, Y105A
VL: B1 VL
notes: one-arm
B20: TR01H023-E22Hh/none-Hi-Kn010G3/L0000-k0 (antibody, V domains shown)
VH: B1 VH with R16G, N56Q, Y105A
VL: B1 VL
notes: one-arm
B21: TR01H020-E22Hh/none-Hi-Kn010G3/L0000-k0 (antibody, V domains shown)
VH: B1 VH with E64P, Y105A
VL: B1 VL
notes: one-arm
B22: TR01H046-E22Hh/none-Hi-Kn010G3/L0000-k0 (antibody, V domains shown)
VH: B1 VH with A23S, G53D, N56Q, Y105A, I111Y
VL: B1 VL
notes: one-arm
B23: TR01H047-E22Hh/none-Hi-Kn010G3/L0000-k0 (antibody, V domains shown)
VH: B1 VH with G53D, A75D, Y105A
VL: B1 VL
notes: one-arm
B24: TR01H033-E22Hh/none-Hi-Kn010G3/L0000-k0 (antibody, V domains shown)
VH: B1 VH with G53S, N56Q, Y105A, I111Y
VL: B1 VL
notes: one-arm
B25: TR01H050-E22Hh/none-Hi-Kn010G3/L0000-k0 (antibody, V domains shown)
VH: B1 VH with G53D, N56Q, A75D, Y105A, I111Y
VL: B1 VL
notes: one-arm
B26: TR01H040-E22Hh/none-Hi-Kn010G3/L0201-k0 (antibody, V domains shown)
VH: B1 VH with G53D, N56Q, Y105A, I111A
VL: B1 VL with S28P, L29P
notes: one-arm
B27: TR01H034-E22Hh/none-Hi-Kn010G3/L0000-k0 (antibody, V domains shown)
VH: B1 VH with N56Q, Y105A, I111A
VL: B1 VL
notes: one-arm
B28: TR01H040-E22Hh/none-Hi-Kn010G3/L0211-k0 (antibody, V domains shown)
VH: B1 VH with G53D, N56Q, Y105A, I111A
VL: B1 VL with S28P, L29P, G94Y
notes: one-arm
B29: TR01H018-E22Hh/none-Hi-Kn010G3/L0000-k0 (antibody)
VH: B1 VH with R16G, Y105A
light: B9 light
notes: one-arm
B30: TR01H030-E22Hh/none-Hi-Kn010G3/L0000-k0 (antibody)
VH: B1 VH with L11V, Y105A
light: B9 light
notes: one-arm
B31: TR01H017-E22Hh/none-Hi-Kn010G3/L0000-k0 (antibody, V domains shown)
VH: B1 VH with R16G, G53A, S104G, Y105A, S106Y
VL: B1 VL
notes: one-arm
B32: TR01H039-E22Hh/none-Hi-Kn010G3/L0000-k0 (antibody, V domains shown)
VH: B1 VH with G53D, N56Q, Y105A
VL: B1 VL
notes: one-arm
B33: TR01H032-E22Hh/none-Hi-Kn010G3/L0000-k0 (antibody, V domains shown)
VH: B1 VH with G53S, N56Q, Y105A, I111A
VL: B1 VL
notes: one-arm
B34: TR01H027-E22Hh/none-Hi-Kn010G3/L0000-k0 (antibody, V domains shown)
VH: B1 VH with R16G, G53S, N56Q, Y105A, I111A
VL: B1 VL
notes: one-arm
B35: TR01H040-E22Hh/none-Hi-Kn010G3/L0208-k0 (antibody, V domains shown)
VH: B1 VH with G53D, N56Q, Y105A, I111A
VL: B1 VL with L29P, S61W, G94Y
notes: one-arm
B36: TR01H040-E22Hh/none-Hi-Kn010G3/L0212-k0 (antibody, V domains shown)
VH: B1 VH with G53D, N56Q, Y105A, I111A
VL: B1 VL with S25P, L29P, G94Y
notes: one-arm
B37: TR01H049-E22Hh/none-Hi-Kn010G3/L0000-k0 (antibody, V domains shown)
VH: B1 VH with G53D, N56Q, A75D, Y105A, I111A
VL: B1 VL
notes: one-arm
B38: TR01H040-E22Hh/none-Hi-Kn010G3/L0000-k0 (antibody, V domains shown)
VH: B1 VH with G53D, N56Q, Y105A, I111A
VL: B1 VL
notes: one-arm
B39: TR01H021-E22Hh/none-Hi-Kn010G3/L0000-k0 (antibody, V domains shown)
VH: B1 VH with Y105A, I111A
VL: B1 VL
notes: one-arm
B40: TR01H022-E22Hh/none-Hi-Kn010G3/L0000-k0 (antibody, V domains shown)
VH: B1 VH with R16G, N56Q, E64P, Y105A
VL: B1 VL
notes: one-arm
B41: TR01H048-E22Hh/none-Hi-Kn010G3/L0000-k0 (antibody, V domains shown)
VH: B1 VH with G53D, N56Q, A75D, Y105A
VL: B1 VL
notes: one-arm
B42: TR01H038-E22Hh/none-Hi-Kn010G3/L0000-k0 (antibody, V domains shown)
VH: B1 VH with G53D, Y105A
VL: B1 VL
notes: one-arm
B43: TR01H040-E22Hh/none-Hi-Kn010G3/L0011-k0 (antibody, V domains shown)
VH: B1 VH with G53D, N56Q, Y105A, I111A
VL: B1 VL with S28P
notes: one-arm
B44: TR01H040-E22Hh/none-Hi-Kn010G3/L0204-k0 (antibody, V domains shown)
VH: B1 VH with G53D, N56Q, Y105A, I111A
VL: B1 VL with L29P, S61R
notes: one-arm
B45: TR01H042-E22Hh/none-Hi-Kn010G3/L0000-k0 (antibody, V domains shown)
VH: B1 VH with L11V, R16G, G53D, N56Q, Y105A, I111A
VL: B1 VL
notes: one-arm

Target: T1, soluble human CD3 epsilon chain (human, UniProt P07766 23-126)
T1 construct: also called CD3ε
Assay: SPR

T1 sequence (P07766 23-126 limits assumed): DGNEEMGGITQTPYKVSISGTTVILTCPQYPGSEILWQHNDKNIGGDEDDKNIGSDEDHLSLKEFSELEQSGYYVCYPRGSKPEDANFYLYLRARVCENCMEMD

Binder | Kd [µM]
B1 | 0.0369
B2 | 0.0849
B3 | 0.0324
B4 | 0.0316
B5 | 0.00425
B6 | 0.0029
B7 | 0.067
B8 | 0.065
B9 | 0.0755
B10 | 0.0465
B11 | 0.0522
B12 | 0.108
B13 | 0.0352
B14 | 0.0685
B15 | 0.0386
B16 | 0.0152
B17 | 0.048
B18 | 0.0512
B19 | 0.00693
B20 | 0.0794
B21 | 0.0648
B22 | 0.0423
B23 | 0.0204

Binder | Kd [µM]
B24 | 0.0488
B25 | 0.0576
B26 | 0.0281
B27 | 0.0911
B28 | 0.00322
B29 | 0.0693
B30 | 0.0654
B31 | 0.035
B32 | 0.0261
B33 | 0.0573
B34 | 0.0695
B35 | 0.00416
B36 | 0.00217
B37 | 0.0679
B38 | 0.036
B39 | 0.0805
B40 | 0.0758
B41 | 0.0452
B42 | 0.0124
B43 | 0.0348
B44 | 0.0221
B45 | 0.0448

From patent US20250066503A1, “CELL INJURY INDUCING THERAPEUTIC DRUG FOR USE IN CANCER THERAPY” (CHUGAI SEIYAKU KABUSHIKI KAISHA, priority 2016, published 2025)
